Laboratory results: US20190194284A1
Like-named read-outs stand apart in the source and are kept apart here.

B1: huCD20 VHH-20*GGS-huIFNβ-6*His, wild type hIFNβ coupled to anti-huCD20 VHH (P-126) (protein)
chain: QVQLQESGGGLAQAGGSLRLSCAASGRTFSMGWFRQAPGKEREFVAAITYSGGSPYYASSVRGRFTISRDNAKNTVYLQMNSLKPEDTAVYYCAANPTYGSDWNAENWGQGTQVTVSSGGSGGSGGSGGSGGSGGSGGSGGSGGSGGSGGSGGSGGSGGSGGSGGSGGSGGSGGSGGSMSYNLLGFLQRSSNFQCQKLLWQLNGRLEYCLKDRMNFDIPEEIKQLQQFQKEDAALTIYEMLQNIFAIFRQDSSSTGWNETIVENLLANVYHQINHLKTVLEEKLEKEDFTRGKLMSSLHLKRYYGRILHYLKAKEYSHCAWTIVRVEILRNFYFINRLTGYLRNHHHHHH

Legend:
Assay in all cases: cell-based or functional assay
[1] = molecular target: T1, type I interferon-α/β receptor (IFNAR), composed of the IFNAR1 and IFNAR2 subunits (human) (UniProt P17181)
T1 sequence (looked up) 1: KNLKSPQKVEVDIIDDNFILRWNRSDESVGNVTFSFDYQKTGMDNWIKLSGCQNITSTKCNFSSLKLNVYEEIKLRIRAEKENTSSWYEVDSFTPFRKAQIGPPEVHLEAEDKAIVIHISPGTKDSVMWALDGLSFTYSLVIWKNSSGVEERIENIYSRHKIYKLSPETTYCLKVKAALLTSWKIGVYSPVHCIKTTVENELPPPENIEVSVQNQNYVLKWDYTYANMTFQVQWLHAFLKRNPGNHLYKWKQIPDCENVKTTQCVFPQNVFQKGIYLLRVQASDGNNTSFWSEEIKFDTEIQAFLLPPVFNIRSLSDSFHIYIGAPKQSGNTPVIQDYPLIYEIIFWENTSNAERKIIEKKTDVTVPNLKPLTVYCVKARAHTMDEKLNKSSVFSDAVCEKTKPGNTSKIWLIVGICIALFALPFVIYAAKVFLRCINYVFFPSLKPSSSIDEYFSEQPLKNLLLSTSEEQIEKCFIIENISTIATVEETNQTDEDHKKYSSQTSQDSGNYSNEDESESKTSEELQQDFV
T1 sequence (looked up) 2: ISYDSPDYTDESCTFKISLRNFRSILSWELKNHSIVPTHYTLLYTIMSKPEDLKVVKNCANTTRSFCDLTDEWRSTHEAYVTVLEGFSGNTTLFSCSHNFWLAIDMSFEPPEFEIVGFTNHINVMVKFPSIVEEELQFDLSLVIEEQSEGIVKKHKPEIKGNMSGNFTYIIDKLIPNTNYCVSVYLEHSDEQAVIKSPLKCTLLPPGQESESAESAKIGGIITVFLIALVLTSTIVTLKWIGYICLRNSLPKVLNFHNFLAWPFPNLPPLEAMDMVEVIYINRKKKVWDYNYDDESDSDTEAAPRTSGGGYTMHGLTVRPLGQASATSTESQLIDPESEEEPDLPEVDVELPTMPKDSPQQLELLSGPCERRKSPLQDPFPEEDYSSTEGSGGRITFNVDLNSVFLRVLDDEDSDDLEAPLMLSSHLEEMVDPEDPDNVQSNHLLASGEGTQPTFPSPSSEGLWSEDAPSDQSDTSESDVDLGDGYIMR

[2] = molecular target: T2, human CD20 (human) (UniProt P11836)
T2 sequence (looked up): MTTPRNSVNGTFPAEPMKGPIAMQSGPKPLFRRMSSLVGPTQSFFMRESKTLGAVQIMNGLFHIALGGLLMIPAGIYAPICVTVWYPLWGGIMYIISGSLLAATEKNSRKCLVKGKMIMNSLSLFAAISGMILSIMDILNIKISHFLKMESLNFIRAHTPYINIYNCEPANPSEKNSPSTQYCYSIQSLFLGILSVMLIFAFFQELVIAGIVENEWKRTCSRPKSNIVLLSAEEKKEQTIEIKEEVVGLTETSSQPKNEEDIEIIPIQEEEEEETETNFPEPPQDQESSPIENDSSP

[3] = molecular target: T1, type I interferon-α/β receptor (IFNAR), composed of the IFNAR1 and IFNAR2 subunits (human); remark: listed apart in the source

Molecule	EC50 for pSTAT1 in CD19 negative cells of human PBMCs [1]	EC50 for pSTAT1 in CD19 positive cells of human PBMCs [1]	EC50 for pSTAT1 in CD19 positive (CD20 positive B) cells of human PBMCs [2]	Targeting effect (EC50 on CD19 negative cells divided by that on CD19 positive cells) [2]	targeting effect, anti-proliferative activity on Daudi (CD20 positive) versus Wish (CD20 negative) cells [2]	EC50 for pSTAT1 in CD19 negative cells of human PBMCs [3]
wild type human IFN-β (from UniProt P01574 22-187) (ligand)	0.592 ng/ml	0.422 ng/ml	–	–	–	–
B1	–	–	97 ng/ml	7.1 fold	24.3 fold	687 ng/ml
